Assay results: PMC4335047, “Interaction between the tRNA-Binding and C-Terminal Domains of Yeast Gcn2 Regulates Kinase Activity In Vivo” (PLoS Genetics, 2015)

Tests used:
Experiment in all cases: pull-down; purified GST fusions (5 μg) immobilised on glutathione-Sepharose 4B beads; in vitro translated [35S]-HisRS(970–1497), partially purified by ammonium sulfate precipitation; buffer A, 4°C, 2 h; without or with increasing tRNA^Phe or a model mRNA; fluorography
Conditions in all cases: one partner purified
[1] = biological target: T1, GST-CTD (Gcn2 residues 1498–1659) (S. cerevisiae, UniProt P15442 1498-1659)
T1 construct: Gcn2 of S. cerevisiae, C-terminal domain (CTD), residues 1498-1659; a pGEX vector with the tac promoter points to E. coli; also called GST-GCN2(1498–1659); source: purified GST fusion (P tac, pGEX-5x-1); not shown: GST, N-terminal, kept
T1 sequence (looked up): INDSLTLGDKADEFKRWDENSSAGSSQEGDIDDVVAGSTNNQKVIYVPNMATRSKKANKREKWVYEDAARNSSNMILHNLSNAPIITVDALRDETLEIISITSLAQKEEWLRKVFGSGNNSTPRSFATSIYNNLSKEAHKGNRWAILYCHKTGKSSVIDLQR

[2] = biological target: T2, GST-HisRS (Gcn2 residues 970–1497), wild type (S. cerevisiae, UniProt P15442 970-1497)
T2 construct: Gcn2 of S. cerevisiae, HisRS-related domain, residues 970-1497; also called WT GST-HisRS; GST-HisRS (970–1497); not shown: GST, N-terminal, kept
T2 sequence (looked up): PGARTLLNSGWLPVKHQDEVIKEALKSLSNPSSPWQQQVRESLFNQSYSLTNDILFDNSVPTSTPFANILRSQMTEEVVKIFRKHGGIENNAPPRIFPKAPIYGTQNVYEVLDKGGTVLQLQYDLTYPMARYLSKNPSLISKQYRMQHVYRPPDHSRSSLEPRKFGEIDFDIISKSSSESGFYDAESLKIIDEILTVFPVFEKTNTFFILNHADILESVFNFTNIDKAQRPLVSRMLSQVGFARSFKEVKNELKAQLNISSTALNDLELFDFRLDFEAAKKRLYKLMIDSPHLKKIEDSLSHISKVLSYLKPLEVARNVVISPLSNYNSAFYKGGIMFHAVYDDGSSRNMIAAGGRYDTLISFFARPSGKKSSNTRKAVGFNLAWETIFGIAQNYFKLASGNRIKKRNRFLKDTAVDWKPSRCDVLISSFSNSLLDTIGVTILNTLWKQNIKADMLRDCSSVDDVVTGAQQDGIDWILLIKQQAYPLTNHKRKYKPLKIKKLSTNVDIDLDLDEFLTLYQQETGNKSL

[3] = biological target: T3, GST-KD (Gcn2 residues 568–998) (S. cerevisiae, UniProt P15442 568-998)
T3 construct: Gcn2 of S. cerevisiae, kinase domain (KD), residues 568-998; a pGEX vector with the tac promoter points to E. coli; also called GST-GCN2(568–998); source: purified GST fusion (P tac, pGEX-5x-1); not shown: GST, N-terminal, kept
T3 sequence (P15442 568-998): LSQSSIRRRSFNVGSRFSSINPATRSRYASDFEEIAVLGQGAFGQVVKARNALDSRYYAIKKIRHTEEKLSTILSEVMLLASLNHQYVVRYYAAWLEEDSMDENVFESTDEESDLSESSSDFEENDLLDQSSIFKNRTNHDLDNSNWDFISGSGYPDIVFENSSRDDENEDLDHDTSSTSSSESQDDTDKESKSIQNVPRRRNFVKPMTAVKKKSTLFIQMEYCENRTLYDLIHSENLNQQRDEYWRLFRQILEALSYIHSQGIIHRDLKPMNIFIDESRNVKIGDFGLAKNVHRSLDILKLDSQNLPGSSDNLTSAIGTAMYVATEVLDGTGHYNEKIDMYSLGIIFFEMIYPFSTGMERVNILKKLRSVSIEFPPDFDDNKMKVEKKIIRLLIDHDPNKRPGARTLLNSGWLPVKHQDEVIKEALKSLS

fold reduction of the pull-down on addition of tRNA^Phe [1]: ~5.4 fold | fold reduction of the pull-down on addition of tRNA^Phe [2]: ~2.1 fold | fold reduction of the pull-down on addition of tRNA^Phe [3]: ~1.8 fold
B1: [35S]-HisRS(970–1497) segment of Gcn2 (domain or fragment, S. cerevisiae, UniProt P15442 970-1497, looked up)
chain: T2 sequence (looked up)
modifications: [35S]-methionine labeled
notes: Gcn2 of S. cerevisiae, HisRS-related domain, residues 970-1497; P T7-GCN2 (970–1497) in pGEM-3Z; also called [^35S]-methionine labeled HisRS fragment; [^35S]-HisRS domain fragments; source: in vitro translated (TNT T7 Coupled Reticulocyte Lysate System), partially purified by ammonium sulfate precipitation
